Test results published in patent US20050144661A1 (WASHINGTON UNIVERSITY, published 2005).

B1: Unfused NLuc (2-416) (other, Photinus pyralis, UniProt P08659 2-416, looked up)
chain: EDAKNIKKGPAPFYPLEDGTAGEQLHKAMKRYALVPGTIAFTDAHIEVNITYAEYFEMSVRLAEAMKRYGLNTNHRIVVCSENSLQFFMPVLGALFIGVAVAPANDIYNERELLNSMNISQPTVVFVSKKGLQKILNVQKKLPIIQKIIIMDSKTDYQGFQSMYTFVTSHLPPGFNEYDFVPESFDRDKTIALIMNSSGSTGLPKGVALPHRTACVRFSHARDPIFGNQIIPDTAILSVVPFHHGFGMFTTLGYLICGFRVVLMYRFEEELFLRSLQDYKIQSALLVPTLFSFFAKSTLIDKYDLSNLHEIASGGAPLSKEVGEAVAKRFHLPGIRQGYGLTETTSAILITPEGDDKPGAVGKVVPFFEAKVVDLDTGKTLGVNQRGELCVRGPMIMSGYVNNPEATNALIDKDG
B2: S2035I FRB-NLuc (other)
chain: MEMWHEGLEEAIRLYFGERNVKGMFEVLEPLHAMMERGPQTLKETSFNQAYGRDLMEAQEWCRKYMKSGNVKDLTQAWDLYYHVFRRISKQQISYASRGGGSSGGGEDAKNIKKGPAPFYPLEDGTAGEQLHKAMKRYALVPGTIAFTDAHIEVDITYAEYFEMSVRLAEAMKRYGLNTNHRIVVCSENSLQFFMPVLGALFIGVAVAPANDIYNERELLNSMGISQPTVVFVSKKGLQKILNVQKKLPIIQKIIIMDSKTDYQGFQSMYTFVTSHLPPGFNEYDFVPESFDRDKTIALIMNSSGSTGLPKGVALPHRTACVRFSHARDPIFGNQIIPDTAILSVVPFHHGFGMFTTLGYLICGFRVVLMYRFEEELFLRSLQDYKIQSALLVPTLFSFFAKSTLIDKYDLSNLHEIASGGAPLSKEVGEAVAKRFHLPGIRQGYGLTETTSAILITPEGDDKPGAVGKVVPFFEAKVVDLDTGKTLGVNQRGELCVRGPMIMSGYVNNPEATNALIDKDG
notes: Point mutant of FRB-NLuc made by site directed mutagenesis; also called mutant FRB(S2035I); FRB(S20351)
B3: CLuc-STAT1 (other, Photinus pyralis;human, UniProt P08659 398-550, looked up)
chain: MSGYVNNPEATNALIDKDGWLHSGDIAYWDEDEHFFIVDRLKSLIKYKGYQVAPAELESILLQHPNIFDAGVAGLPDDDAGELPAAVVVLEHGKTMTEKEIVDYVASQVTTAKKLRGGVVFVDEVPKGLTGKLDARKIREILIKAKKGGKSKLMSQWYELQQLDSKFLEQVHQLYDDSFPMEIRQYLAQWLEKQDWEHAANDVSFATIRFHDLLSQLDDQYSRFSLENNFLLQHNIRKSKRNLQDNFQEDPIQMSMIIYSCLKEERKILENAQRFNQAQSGNIQSTVMLDKQKELDSKVRNVKDKVMCIEHEIKSLEDLQDEYDFKCKTLQNREHETNGVAKSDQKQEQLLLKKMYLMLDNKRKEVVHKIIELLNVTELTQNALINDELVEWKRRQQSACIGGPPNACLDQLQNWFTIVAESLQQVRQQLKKLEELEQKYTYEHDPITKNKQVLWDRTFSLFQQLIQSSFVVERQPCMPTHPQRPLVLKTGVQFTVKLRLLVKLQELNYNLKVKVLFDKDVNERNTVKGFRKFNILGTHTKVMNMEESTNGSLAAEFRHLQLKEQKNAGTRTNEGPLIVTEELHSLSFETQLCQPGLVIDLETTSLPVVVISNVSQLPSGWASILWYNMLVAEPRNLSFFLTPPCARWAQLSEVLSWQFSSVTKRGLNVDQLNMLGEKLLGPNASPDGLIPWTRFCKENINDKNFPFWLWIESILELIKKHLLPLWNDGCIMGFISKERERALLKDQQPGTFLLRFSESSREGAITFTWVERSQNGGEPDFHAVEPYTKKELSAVTFPDIIRNYKVMAAENIPENPLKYLYPNIDKDHAFGKYYSRPKEAPEPMELDGPKGTGYIKTELISVSEVHPSRLQTTDNLLPMSPEEFDEVSRIVGSVEFDSMMNTV
modifications: unphosphorylated on Y701 in untreated cells (Western blot); phosphorylated after IFN-γ
notes: not shown: Gly/Ser linker with cloning sites
B4: FRB-NLuc(2-416) (other, human;Photinus pyralis, UniProt P42345 2024-2113, looked up)
chain: HEMWHEGLEEASRLYFGERNVKGMFEVLEPLHAMMERGPQTLKETSFNQAYGRDLMEAQEWCRKYMKSGNVKDLTQAWDLYYHVFRRISKEDAKNIKKGPAPFYPLEDGTAGEQLHKAMKRYALVPGTIAFTDAHIEVNITYAEYFEMSVRLAEAMKRYGLNTNHRIVVCSENSLQFFMPVLGALFIGVAVAPANDIYNERELLNSMNISQPTVVFVSKKGLQKILNVQKKLPIIQKIIIMDSKTDYQGFQSMYTFVTSHLPPGFNEYDFVPESFDRDKTIALIMNSSGSTGLPKGVALPHRTACVRFSHARDPIFGNQIIPDTAILSVVPFHHGFGMFTTLGYLICGFRVVLMYRFEEELFLRSLQDYKIQSALLVPTLFSFFAKSTLIDKYDLSNLHEIASGGAPLSKEVGEAVAKRFHLPGIRQGYGLTETTSAILITPEGDDKPGAVGKVVPFFEAKVVDLDTGKTLGVNQRGELCVRGPMIMSGYVNNPEATNALIDKDG
notes: range 2024-2113;range 2-416; The printed ORF starts with an added Met (MEMWHEG...); not shown: flexible Gly/Ser linker with multiple cloning site
B5: CLuc-14-3-3ε (other, UniProt P08659 398-550, looked up)
chain: MSGYVNNPEATNALIDKDGWLHSGDIAYWDEDEHFFIVDRLKSLIKYKGYQVAPAELESILLQHPNIFDAGVAGLPDDDAGELPAAVVVLEHGKTMTEKEIVDYVASQVTTAKKLRGGVVFVDEVPKGLTGKLDARKIREILIKAKKGGKSKLMDDREDLVYQAKLAEQAERYDEMVESMKKVAGMDVELTVEERNLLSVAYKNVIGARRASWRIISSIEQKEENKGGEDKLKMIREYRQMVETELKLICCDILDVLDKHLIPAANTGESKVFYYKMKGDYHRYLAEFATGNDRKEAAENSLVAYKAASDIAMTELPPTHPIRLGLALNFSVFYYEILNSPDRACRLAKAAFDDAIAELDTLSEESYKDSTLIMQLLRDNLTLWTSDMQGDGEEQNKEALQDVEDENQ
notes: FKBP of the CLuc fusion vector replaced by 14-3-3ε; not shown: Gly/Ser linker with cloning sites
B6: Cdc25C-NLuc (other, human;Photinus pyralis, UniProt P30307 1-473, looked up)
chain: MSTELFSSTREEGSSGSGPSFRSNQRKMLNLLLERDTSFTVCPDVPRTPVGKFLGDSANLSILSGGTPKRCLDLSNLSSGEITATQLTTSADLDETGHLDSSGLQEVHLAGMNHDQHLMKCSPAQLLCSTPNGLDRGHRKRDAMCSSSANKENDNGNLVDSEMKYLGSPITTVPKLDKNPNLGEDQAEEISDELMEFSLKDQEAKVSRSGLYRSPSMPENLNRPRLKQVEKFKDNTIPDKVKKKYFSGQGKLRKGLCLKKTVSLCDITITQMLEEDSNQGHLIGDFSKVCALPTVSGKHQDLKYVNPETVAALLSGKFQGLIEKFYVIDCRYPYEYLGGHIQGALNLYSQEELFNFFLKKPIVPLDTQKRIIIVFHCEFSSERGPRMCRCLREEDRSLNQYPALYYPELYILKGGYRDFFPEYMELCEPQSYCPMHHQDHKTELLRCRSQSKVQEGERQLREQIALLVKDMSPEDAKNIKKGPAPFYPLEDGTAGEQLHKAMKRYALVPGTIAFTDAHIEVNITYAEYFEMSVRLAEAMKRYGLNTNHRIVVCSENSLQFFMPVLGALFIGVAVAPANDIYNERELLNSMNISQPTVVFVSKKGLQKILNVQKKLPIIQKIIIMDSKTDYQGFQSMYTFVTSHLPPGFNEYDFVPESFDRDKTIALIMNSSGSTGLPKGVALPHRTACVRFSHARDPIFGNQIIPDTAILSVVPFHHGFGMFTTLGYLICGFRVVLMYRFEEELFLRSLQDYKIQSALLVPTLFSFFAKSTLIDKYDLSNLHEIASGGAPLSKEVGEAVAKRFHLPGIRQGYGLTETTSAILITPEGDDKPGAVGKVVPFFEAKVVDLDTGKTLGVNQRGELCVRGPMIMSGYVNNPEATNALIDKDG
modifications: phosphorylated on S216 in the cells (Western blot, reduced by UCN-01)
notes: FRB of the NLuc fusion vector replaced by the Cdc25C open reading frame; not shown: Gly/Ser linker region reconstituted up to the BsiWI site

Tests used:
Unfused CLuc = molecular target: T1, Unfused CLuc (Photinus pyralis); test: cell-based or functional assay
T1 chain: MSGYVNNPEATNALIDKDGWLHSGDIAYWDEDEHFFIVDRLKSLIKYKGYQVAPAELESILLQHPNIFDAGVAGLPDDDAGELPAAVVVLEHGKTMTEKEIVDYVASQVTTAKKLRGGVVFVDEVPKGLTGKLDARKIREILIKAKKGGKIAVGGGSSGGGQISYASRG

CLuc(398-550)-FKBP [1] = molecular target: T2, CLuc(398-550)-FKBP (Photinus pyralis; human, UniProt P08659 398-550 = luciferase; P62942 1-108); test: LCI in mice with i.p. implants of transfected HEK-293 cells, with and without rapamycin
T2 construct: The printed ORF starts with an added Met; also called CLuc-FKBP; not shown: flexible Gly/Ser linker with multiple cloning site

STAT1-NLuc = molecular target: T3, STAT1-NLuc (human; Photinus pyralis, UniProt P42224 1-750; P08659 2-416 = luciferase, unphosphorylated on Y701 in untreated cells (Western blot); phosphorylated after IFN-γ); test: LCI, live HEK-293 cells
T3 construct: not shown: Gly/Ser linker region reconstituted up to the BsiWI site

CLuc(398-550)-FKBP [2] = molecular target: T2, CLuc(398-550)-FKBP; test: cell-based or functional assay
CLuc-STAT1 = molecular target: B3; test: LCI, live HEK-293 cells

B1
background bioluminescence against the FRB-NLuc/CLuc-FKBP pair in the absence of rapamycin (Unfused CLuc): 12 fold less
background bioluminescence against the FRB-NLuc/CLuc-FKBP pair in the presence of rapamycin (Unfused CLuc): 100 fold less

B2
binding result (CLuc(398-550)-FKBP [1]): no binding

B3
binding result (STAT1-NLuc): binds

B4
apparent Kd of rapamycin for induced FRB/FKBP association, bioluminescence readout in intact HEK-293 cells (CLuc(398-550)-FKBP [2]): 1.5 nM
apparent Ki of FK506 for inhibition of rapamycin-induced luciferase activity in situ (rapamycin 80 nM) (CLuc(398-550)-FKBP [2]): 4.2 nM
bioluminescence induction by rapamycin (80 nM) in cell lysates over untreated lysates, within 15 minutes (CLuc(398-550)-FKBP [2]): 18 fold
drug-specific induction of bioluminescence over background (CLuc(398-550)-FKBP [2]): 1200 fold
maximal mean bioluminescence signal over untransfected cells, with rapamycin, live HEK-293 cells (CLuc(398-550)-FKBP [2]): 72 fold
maximum bioluminescence in rapamycin-treated mice over untreated mice (i.p. cell implants) (CLuc(398-550)-FKBP [2]): 23 fold
mean maximal increase in bioluminescence with rapamycin (80 nM) over untreated transfected cells, within 4-6 hrs (CLuc(398-550)-FKBP [2]): 6 fold
bioluminescence signal against FRB-NLuc/CLuc-FKBP without rapamycin (Unfused CLuc): 3 fold lower
binding result (CLuc-STAT1): no binding

B5
binding result (STAT1-NLuc): no binding

B6
binding result (CLuc-STAT1): no binding
